The values below come from patent publication US10919943B2, “Mutant proteins enabling agrochemical control of plant gene expression” (The Regents of the University of California, priority 2016, dated 2021).

For the experiment, the target named is T1, PYR1*^-MANDI (Arabidopsis thaliana, UniProt O49686, A160V/F108A/F159V/K59R/M158I/S122G/T162D/V81I/Y58H).
T1 construct: expressed in transfected cells; host or cells: S. cerevisiae strain MAV99 (selection)
T1 sequence (O49686 1-191 Y58H/K59R/V81I/F108A/S122G/M158I/F159V/A160V/T162D): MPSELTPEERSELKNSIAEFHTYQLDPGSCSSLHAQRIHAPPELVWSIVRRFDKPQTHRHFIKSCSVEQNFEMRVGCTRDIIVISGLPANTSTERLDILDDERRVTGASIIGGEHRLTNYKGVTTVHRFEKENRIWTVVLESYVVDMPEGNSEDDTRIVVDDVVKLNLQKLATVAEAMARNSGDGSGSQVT
T1 sequence (Q9CAJ0 4-511 R199A/D204A/S322D/V393R/R505A partner): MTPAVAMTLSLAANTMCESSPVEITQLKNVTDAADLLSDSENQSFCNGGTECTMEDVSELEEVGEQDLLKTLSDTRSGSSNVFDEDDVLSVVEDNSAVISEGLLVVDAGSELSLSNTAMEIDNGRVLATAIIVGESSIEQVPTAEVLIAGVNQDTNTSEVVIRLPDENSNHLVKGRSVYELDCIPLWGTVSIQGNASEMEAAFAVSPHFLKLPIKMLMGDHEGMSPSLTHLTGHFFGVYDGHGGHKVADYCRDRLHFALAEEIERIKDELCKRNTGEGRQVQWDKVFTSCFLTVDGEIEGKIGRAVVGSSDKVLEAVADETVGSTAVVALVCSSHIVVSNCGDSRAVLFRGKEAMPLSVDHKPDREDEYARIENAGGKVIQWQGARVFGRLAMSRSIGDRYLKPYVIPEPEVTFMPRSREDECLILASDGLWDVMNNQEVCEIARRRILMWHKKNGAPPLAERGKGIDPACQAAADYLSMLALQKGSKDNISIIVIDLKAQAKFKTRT
Put plainly: Yeast two hybrid, mandipropamid-induced interaction of HAB1 variants with pBD-PYR1*^-MANDI. Type of experiment: cell-based. The following applies: FIG. 6. The source says: To investigate the effects of overexpressing HAB1^!-2 in Arabidopsis, we used Agrobacterium mediated transformation to generate 35S::GFP-HAB1^!-2 transgenic plants. HAB1^!-2 was cloned from pACT-HAB1^!-2 into pEGAD, a binary vector suitable for plant transformation, generating a 35S-driven GFP-HAB1^!-2 fusion protein. The clone was transformed into Agrobacterium and the floral dip method used to transform Arabidopsis. After selection of T0 seed on soil containing glufosinate, several T1 seedlings were identified. […] As an alternate strategy, we eliminated HAB1's catalytic activity by introducing a mutation in a conserved metal-ion binding residue (D204), which is homologous to D131A mutation in ABI1, previously shown to eliminate phosphatase activity without disrupting wild type receptor-ABI1 interactions (Liang et al., 2011). We used QuickChange mutagenesis to introduce the D204A mutation into pACT-HAB1^!-2, generating pACT-HAB1^!-3. When tested for mandipropamid induced interactions with pBD-PYR1*^-MANDI, HAB1^!-3 is ˜10-fold less sensitive to mandipropamid relative to HAB1^!-2 (FIG. 5).
D204 is located within HAB1's catalytic active site and binds to one of 3 catalytic Mg^++ ions that participate in catalysis. […] It is likely that disruptions to active site structure introduced by D204A destabilize the PYR1*^-MANDI/HAB1^!-3 interaction relative to HAB1^!-2. We reasoned that suppressor mutations in other HAB1 interface or active site residues could restore sensitivity by strengthening interactions with PYR1*^-MANDI. To identify such suppressors, we mutagenized the pACT-HAB1^!-3 template using NNK mutagenesis in 28 residues located with at the PYR1 binding interface. The residues targeted were: R199, S200, E201, E203, D243, G244, H245, G246, G247, S322, E323, T324, D346, K365, K381, 1383, Q384, W385, Q386, R389, F391, G392, Y404, S431, G433, D436, D492 and N394. The pACT-HAB1^!-3 template was mutagenized in 28 separate NNK mutagenesis reactions using the QuickChange protocol. Mini-libraries, each containing ˜1000 clones, were made for each NNK reaction and plasmid DNA for the 28 mutations prepared, pooled, and then transformed into S. cerevisiae strain MAV99 co-transformed with pBD-PYR1*^-MANDI, and then plated onto selective SD(-Leu,-Trp,-Ura) agar media supplemented with 500 nM mandipropamid. […] S322D and R199A were combined using the Lightning Multi-site Mutagenesis™ (Agilent, USA) method, and the resultant pentuple mutant tested in combination with pBD-PYR1*^-MANDI for sensitivity to mandipropamid using β-galactosidase assays.

B1: HAB1*: catalytically inactive orthogonal pentuple HAB1 mutant (protein, listed as Arabidopsis thaliana)
chain: MTPAVAMTLSLAANTMCESSPVEITQLKNVTDAADLLSDSENQSFCNGGTECTMEDVSELEEVGEQDLLKTLSDTRSGSSNVFDEDDVLSVVEDNSAVISEGLLVVDAGSELSLSNTAMEIDNGRVLATAIIVGESSIEQVPTAEVLIAGVNQDTNTSEVVIRLPDENSNHLVKGRSVYELDCIPLWGTVSIQGNASEMEAAFAVSPHFLKLPIKMLMGDHEGMSPSLTHLTGHFFGVYDGHGGHKVADYCRDRLHFALAEEIERIKDELCKRNTGEGRQVQWDKVFTSCFLTVDGEIEGKIGRAVVGSSDKVLEAVADETVGSTAVVALVCSSHIVVSNCGDSRAVLFRGKEAMPLSVDHKPDREDEYARIENAGGKVIQWQGARVFGRLAMSRSIGDRYLKPYVIPEPEVTFMPRSREDECLILASDGLWDVMNNQEVCEIARRRILMWHKKNGAPPLAERGKGIDPACQAAADYLSMLALQKGSKDNISIIVIDLKAQAKFKTRT
B1: the “mandipropamid sensitivity for binding to pBD-PYR1*^-MANDI” value is on record as “nM sensitivity”.
